From the nanobody polyreactivity screen of Harvey et al. (2022)

Test: yeast display, Sf9 membrane polyspecificity reagent, FACS + sequencing; frameworks hold sequencing errors
In short: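 Genes from sorted yeast were amplified by colony PCR, read by MiSeq 2 × 250 sequencing and filtered on CDR length. These cells carried a synthetic nanobody library in Saccharomyces cerevisiae BJ5465 and were sorted by FACS into low and high (top ~1%) gates on anti-HA and streptavidin fluorescence. Polyreactivity is labelled according to the gate of origin.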

Sequence: QVQLVESGGGLVQAGGSLRLSCAASGSIFPKYAMGWYRQAPGKERELVAAITSSGGRTYYADSVKGRFSISRDNAKNTVYLQMNSLKPEDTAVYYCAARYRREAAYGFDYWGQGTQVTVSS
- polyreactivity (PSR sort gate): high polyreactivity

Sequence: QVQLVESGGGLVQAGGSLRLSCAASGRIFYDYAMGGSRQAPGKERELVAAISKGGGSTYYADSVKGRFTISRDNAKNTVYLQMYSLKPEDTAVYYCAASSSLTTDTLYDYWGQGTQVTVSS
- polyreactivity (PSR sort gate): low polyreactivity

Sequence: QVQLVESGGGLVQAGGSLRLSCAASGRIFAGYAMGWYRQAPGKERELVAAISDGGTTNYADSVKGRFTISRDNAKNTVYLQMNSLKPEDTAVYYCAAKSRTYQSYYYWGQGTQVTVSS
- polyreactivity (PSR sort gate): low polyreactivity

Sequence: QVQLVESGGGLVQAGGRLRLSCAASGYIFYYNAIGWYRQAPGKERELVAAITSDDSTYYADSVKGRFTISRDNAKNTVYLQMNSLKPEDTAVYYCNAVRYGHWYDYWGQGTQVTVSS
- polyreactivity (PSR sort gate): low polyreactivity

Sequence: QVQLQESSGGLVQAGGSLRMSCAASGTNFHFHIMGWYRQAPGKEREFVAAISYGTSTYYADSVKGRFTISRDNAKNTVYLQMNSQKPEDTAVYYCAVYDYLEVYCWYWGQGTQVTVSS
- polyreactivity (PSR sort gate): low polyreactivity

Sequence: QVQLVETGGGLVQAGGSLRLSCAASGRTYAFYAMGWYRQAPGKERELVASISSSGDRPYYADSVKGRFTISRDNAKNTVFLQLNSLKPEDTAVYYCAARWRYTYYYWGQGTQVTVSS
- polyreactivity (PSR sort gate): high polyreactivity

Sequence: QDQLVDSGGGLVQAGGSLRLSCAASGSIQSRYAMGWYRQAPGKERELVAAISRSTDSTYYADSVKGRFTISRDNAKNTVYLKMNSLKPEDTAGYYCNAVYRSSYQKGSMDYWGQGTQVTVSS
- polyreactivity (PSR sort gate): high polyreactivity

Sequence: QVQLVESGGGLVQAGGSLRLSCAASGLTFYTYPMGWYRQAPGKERELVAAISSSTGSTYYADSVKGRFTISRDNAKNTVYLQMNSLKPEDSAVYYCAAESYWGVNYWGQGTQVTVSS
- polyreactivity (PSR sort gate): high polyreactivity

Sequence: QVQLVESGGGLVQAGGSLRLSCAASGSIFYRYALGWYRQAPGKEREFVAGITTRGGSTYYADSVKGRFTISRDNAKNTVYFQMNCLKPEDTAVYDCAASSRVWPNFGYWGQGTQVTVSS
- polyreactivity (PSR sort gate): high polyreactivity

Sequence: QVQLVESGGGLVQAGGSLRLSCAASGFIFYYNAMGWYRQAPGKERELVARISSGSGTYYADSVKGRFTISRDNAKNTVYLQMNSLKPEDTAVYYCAARYPRGAMYYWGQGTQVTVSS
- polyreactivity (PSR sort gate): low polyreactivity

Sequence: QVQLVETGGGLVQAGGSLRLSCAASGSIFYGYAMGWYSQSHGQEREFVAAITFSATSTYYADSVKGRFTISRDNAKNPVYLQMNSLKPEDTAVYYCAAVIGDWQYQYYYWGQGTLVTVSS
- polyreactivity (PSR sort gate): low polyreactivity

Sequence: QLQLVESGGGLVQAGGSLRLSCAASGSIFRINAMGWYRQEPGKESELVSAISTRSGRTYYADSVKVRFTISRDNSKNTVYLQMNSLKPEDTAVYYCARYRTQASGYGGYDYWGQGTQVTVSS
- polyreactivity (PSR sort gate): high polyreactivity

Sequence: QVQLVESGGGLVQAGGSLRLSCAASGRNFYSYVMGWYRQAPGKERELVASIRVSGGSTYYADSVKGRFTISRDNAKNTVYLQMNSLKPEDTAVYYCAAGYRSGVSLWRFYAYYWGQGTQVTVSS
- polyreactivity (PSR sort gate): high polyreactivity

Sequence: QVQLVESGGGLVQAGGSLRLSCADSGIIFAYYAMGWYRQAPGKERELVAAITGGGVRTYYADSVKGRFTISRDNAKNTVYLQMNSLKPEDTAVYDCIATGSTASGRVNYWGQGTQVTVSS
- polyreactivity (PSR sort gate): high polyreactivity

Sequence: QVQLVESGGGLVQAGGSVRLSCAASGFISPSYAMGWYRQAPGKERELVAAITTSGGSTYYADSVKGRFTISRDNAKNTVYLQMNSLIPEDTAVYYCAAVGPDNSLYEPMDYWGQGTQVTVSS
- polyreactivity (PSR sort gate): low polyreactivity

Sequence: QVQLVESGGGLVQAGGSLRLICAASGRTFPGYGMGWYRQAPGKERELVAVITSNGGITYYADSVKGRFTISRDNAKNTVYLQMNSLKPEDTAVYYCAAYEIYNEFDSWGQGTQVTVSS
- polyreactivity (PSR sort gate): low polyreactivity

Sequence: QVQLVESGGGLVQAGGSLRLSCAASGFIFYVYAMGWYRQAPGKERELVAAISADGGITYYADSVKGRFTISRDNAKNSVYFQMNSLKPEDTAVYYCNTLGDQDAYAGFRLDYWGQGTQVTVSS
- polyreactivity (PSR sort gate): low polyreactivity

Sequence: QVQLVESGGGLVQAGGSLRLSCAASGSIFSFYAMGWYRQAPGKEREFVAAITISDDSTYYADTVKGRFTISRDNAKNTVYLQMNSLNPEDTAVYYCNDRYLSWYFKYLYDYWGQGTQVTVSS
- polyreactivity (PSR sort gate): low polyreactivity

Sequence: QVQLVESGGGLVQAGGSLRLSCAASGSIFVWYAMGRYRQAPGQERELVARITSGGRTNYADSVKGRFTISRDNAKNTVYLQMISLKPEDTAVYYCAAGRVSWSPDYYWGQGTQGTVSS
- polyreactivity (PSR sort gate): high polyreactivity

Sequence: QFQLVESGGGLVQAGGSLRLSCAASGRTFASNAMGWYRQAPGKERELVADITWDGGRTYYADSVKGRFTISRDNAKNTVYLQMNSLKPEDTAVYYCAARDTFPRRYGYWGQGTQVTVSS
- polyreactivity (PSR sort gate): high polyreactivity

Sequence: QVQLVESGGGLVHAGGSLRLSCAPSGSTFFTNAMGWYRQAPGKERELVAAITINDGSTFYADSVKGRFTISRDNAKNTVYLQMNSLKQEDTAVYYCNADGVDLYDYWGQGTQVTVSS
- polyreactivity (PSR sort gate): low polyreactivity

Sequence: QVQLVESGGGLVQAGGSLRLSCAASGFIFYNYAMGWYRQAPGKERELVAAISASGGRTYYADSVKGRFTISRDNAKNTVYLQMHRLKPEDTAVYYCIARVKYKGYDYWGQGTQVTVSS
- polyreactivity (PSR sort gate): high polyreactivity

Sequence: QVQLGESGGGLVQAGGSLRLSCAASGSTFAPYAMGWYRQAPGKERELVAAISTGGSTNYADSVKGRFTISRDNAMNTVYFQMNSLKPEDTAVYYCNTGYFVWGFDYWGQGTQVTVSS
- polyreactivity (PSR sort gate): low polyreactivity

Sequence: QVQLVESGGGLVQAGGSLRLSCAASGYIFPAYGMGWYIQAPGKERELVAAISWSTGSTYYADSVKGRFTISRDNAKNTVYLQMNSLKPEDTAVYYCDAGRPRRVPDHWYIYYYWGQATQVTVSS
- polyreactivity (PSR sort gate): low polyreactivity

Sequence: QVQLVESGGGLVQAGGSLRLSCAASGFIFQDYAMGWYRQAPGKERELVAAITQSSGSTYYADSVKGRFTISRDNAKNTVYLQMNSLKPEDTAVYYCNTAYDFSRQASYDYWGQVTQVTVSS
- polyreactivity (PSR sort gate): low polyreactivity

Sequence: QVQLVESGGGLVQAGGSLRLSCAASGIISSVYAMGWYRQAPGKERELVAAISGSGGSTYYADSVKGRFTISRDNAKNTVYLQMNSLKPEDTAVYYCAKGYQYQGNSYGYWGQGTQVTVSS
- polyreactivity (PSR sort gate): low polyreactivity

Sequence: QVRLVETGGGLVQAGGSLRLSCAASGSTFPHYTMGWYIQAHGKERELVAVISRSGRTYYADSVKGRFTISRDNAKNTFYLQMNSLKPEDTAVYYCDVLVGRLVWSYNHWGQVTQVTVSS
- polyreactivity (PSR sort gate): high polyreactivity

Sequence: QVQLVESGGGLVQAGGSLRLSCAASGSIFPGYTMGWYRQAPGKERELVAAITSSGGSTYYADSVKGRFTISRDNAKNTVYLQMNSLKPEDTAVYYCAADTTNYFDPFDYWGQGTQVTVSS
- polyreactivity (PSR sort gate): low polyreactivity

Sequence: QVQLVESGGGLVQAGGSLRLSCAASGSIFGYYTMGWYRQAPGKERELVAAITRSGATTFYADSVKGRFTISRDKAKNTVYLQMNSLKPEDTAVYYCAAQARGYTRGYWGQGTQVTVSS
- polyreactivity (PSR sort gate): high polyreactivity

Sequence: QLQHVESGGGLVQAGGSLRLSCAASGGIFGIYAMGWYRQAPGKESELVAAISRRGGSTYFADSVKGRFTISRDNAKNTVYLQMKSLKPADTAVYYCAAVRRGVNTSFGYRPLNYWGQGTEVTVSS
- polyreactivity (PSR sort gate): high polyreactivity

Sequence: QVQLVESGGGLVQAGGSLRLSCAASGFTFGNNAMGWYRQAPGKERELVAGISRTGGRTYYADSVKGRYTISRDNAKNTVYFQMNSLKPEDTGVYYCNADSTLYTGYDYWGQGTQVTVSS
- polyreactivity (PSR sort gate): high polyreactivity

Sequence: QVQLVESGGGLVQAGGSLRLSCAASGSTFDPNTMGWYRQAPGKDRELVAAITSSTASTYYADSVKGRFTISRDNAKNTVYLQMNSLKPEDTAVYYCAADSEQDNLRYYRWVWYYYWGQGTQVTVSS
- polyreactivity (PSR sort gate): low polyreactivity

Sequence: QVQLVESGGGLVQAGGSLRLSCAASGLTFRWYAMGWYRQAPGKERELVAAISSGGSTNYADSVKGRFTISRDNAKNTVYLQMNSLKPEDTAVDYCNAKGRPWFKYDYWGQGTQVTVSS
- polyreactivity (PSR sort gate): high polyreactivity

Sequence: QVQLVESGGGLVQAGGSLRLSCAASGRIFYQYAMGWYRQAPGKERELVAAIRYRDDGTYYADSVKGRFTISRDNAKNTVYLQMNSLKPEDTAVYYCAAKQWGRYGFWGQGTQVTVSS
- polyreactivity (PSR sort gate): high polyreactivity

Sequence: QVQLVESGGGLVQAGGSLRISCAASGRTFPCKAMGWYRQAPGKERELVATITWSSGRTHYADSVKGRFTISRDNAKNTVYLQMNSLKPEDSAVYYCAAKWIVAVVGFYYWGQGTQVTVSS
- polyreactivity (PSR sort gate): low polyreactivity

Sequence: QVQLVESCGGLVQPGGSLRLSCAASGSTFTRYGFGWYRQATGKEREMVAAITTSGSSTYYADSVKGRFTISRDNAKYTVYLQMNSLKPEETAVYYGAADWSSWGFDYWGQGTQVTVSS
- polyreactivity (PSR sort gate): low polyreactivity

Sequence: QVHLVESGGGLVQAGGSLRLSCAASGSIFRYYAMGCYRQAPGKERELVAGITWSSGSTYYADYVKGRFTISRDKAKNTVYFQMNSLKPEDTAVSYCIADPANPFVTEFEYWGQGNQVTVSS
- polyreactivity (PSR sort gate): high polyreactivity

Sequence: QFQLVESGGGLVQAGGSLRLSCAASGSTFAFYAMGRYRQAPGKERELVPAINLGGGSTYYAASVKGRFTISRDNAKNTVYLQMNSLKPEDTAVYYCAADFWTISWPVFDTYEYWGQGTQVTVSS
- polyreactivity (PSR sort gate): low polyreactivity

Sequence: QVQLVESGGGLVQAGGSLRLSCAASGSTFARNARGWYRQAPGKERELVAAITTRGSSTYYADSVKGRFTISRDNAKNTVYLQMHSLKPEDTAVYYCAADSRRSWYWGGYRQTGMGYWGQGTQVTVSS
- polyreactivity (PSR sort gate): high polyreactivity

Sequence: QVQLVESGGGLVQAGGSLRLSCAASGSTFFEYAMGWYRKAPGKEREFVAGISWSGGITYYADSVKGRFTISRDNAKNTVYLQMNSLKPEDTAVYYCATAGGDWYGVDYWGQGTQVTVSS
- polyreactivity (PSR sort gate): low polyreactivity

Sequence: QVQLVESGGGLVQAGGSLRLSCAASGYTFGINAMGWYRQAPGNERELVAAITTGGSTNYADSVKGRFTISRDNAKNTVYLQMNSLTPEDTAVYYCNASWDGWNANYWYPGAYYYWGQGTQVTVSS
- polyreactivity (PSR sort gate): low polyreactivity

Sequence: QVQLVESGGGLVQAGGSLRLSCAASGITFGWYAMGWYRPAPGKERELVAAISWSGGTTYYADSVKGRFTISRDNAKNTVYLQMNSLKPEDTAVYYCAATWYYPTVYAGNYWGQGTQVTVSS
- polyreactivity (PSR sort gate): high polyreactivity

Sequence: QVQLVESGGGLVQAGGSLRLSFAASGSTFVIYAMGWYRQAPGTERELVAAISGRTGSTYYADSVKGRFTISRDNAKNTVYLQMNSLKPEDTAVYYCAAYKRSGLKYGHWGQGTQVTVSS
- polyreactivity (PSR sort gate): high polyreactivity
